Patent publication US5091312A

Substrate: CNCC(=O)O
Assay: purified protein, by the assay type
Settings: other: 37° C., pH 8.0

B1: sarcosine oxidase (E.C.1.5.3.1) from Streptomyces sp. KB210-8SY (Streptomyces sp. KB210-8SY) (protein)
chain: SPTYDVIVIGLGGMGSAAAHHLSARGARVLGLEKFGPVHNRGSSHGGSRITRQSYFEDPAYVPLLLRAYELYEELERATGRNVATLCGGVMAGPPDSRTVSGSLRSATEWDLAHEMLDAKEIRRRFPTLAPDDDEVALFEAKAGLLRPENMVAAHLQLATRQGAELRFEEPVLRWEPYRDGVRVHTGENTYTAGQLVICPGAWAPQLLADIGVPITVERQIMYWFQPKGGTGPFVPERHPVYIWEDADGVQVYGFPAIDGPEKGAKVAFFRKGQHTTPETIDRTVHAHEVRAMADHMSALIPDLPGTFLKAATCMYSNTPDEHFVIARHPAHPESVTVACGFSGHGFKFVPVVGEILADLALTGATAHPIGLFDPARLTAPAARGVQP
- Km: 910 µM
